Results published in the nanobody polyreactivity screen of Harvey et al. (2022).

Assay: yeast display, Sf9 membrane polyspecificity reagent, FACS + sequencing; frameworks hold sequencing errors
Summary of the method: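 Nanobodies from a synthetic yeast display library (Saccharomyces cerevisiae BJ5465), induced 36–48 hours with galactose, were stained 1 hour at 4 °C with 10% biotinylated, detergent-solubilized Sf9 membrane reagent, enriched on streptavidin microbeads, then FACS-sorted. Anti-HA (expression) and streptavidin (reagent binding) fluorescence set low and high (top ~1%) gates. Polyreactivity labels come from the gate of origin. Genes were colony-PCR amplified, MiSeq 2 × 250 sequenced and filtered by CDR length.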

| Sequence | polyreactivity (PSR sort gate) |
| --- | --- |
| QVQLVESGGGLVQAGGSLRLSCAASGRTFGGYAMGWYRQAPGKERELVAAISRSGGSTRYADSVKGRFTISRDNAKNTVYLQMNSLKPEDTAVYYCAARQKYEILMEYWGQGTQVTVSS | high polyreactivity |
| QVQLVESGGGLVQAGGSLRLSCAASGRTFGGYVMGWYIQAPGKERELVASISSSAGSTYYADSVKGRFTISRDNAKNTVYLQMNSLKTEDTAVYYCAKRSYNPYYRYYRYPYGYWGQGTQVTVSS | high polyreactivity |
| QVQLVESGGGLVQAGGSLRLSCAASGRTFGHNAMGWYRQAPGKEREFVAAITYSGVRTFYADSVKGRFTISRDNAKNTVYLQMNSLKPEDTSVYYCATDWRRDYDYWGQGTQVTVSS | low polyreactivity |
| QVQLVESGGGLVQAGGSLRLSCAASGRTFGHYAMGLYRQAPGKERELVADITRRGGSTSYADSVKGRFTISRDNAKNTVYLQMNSLKPEDTAVYYCNKAADGSSHYDYWGQGTQVTVSS | low polyreactivity |
| QVQLVESGGGLVQAGGSLRLSCAASGRTFGHYAMGWYRQAPGKERELVAAITYSGGSTYADSVKGRFTISRDNAKNTVYLQMNSLKPEDTAVYYCNKRQKGYTRSYRYIVWYDYWGQGTQVTVSS | high polyreactivity |
| QVQLVESGGGLVQAGGSLRLSCAASGRTFGINAMGWYRQAPGKERELVAVISFGDGGTYYADSVKGRFTISRDNAKNTVYLQMNSLKPEDSAVYYCAAEVVAQMNYWGQGTQVTVSS | low polyreactivity |
| QVQLVESGGGLVQAGGSLRLSCAASGRTFGIYAMGWYRQAPGKERELVAAISCGGGSTYYADSVKGRFTISRDNAKNTVYLQMNSLKPEYTAVYYCAAQAQWDGQMDYWGQGTQVTVSS | low polyreactivity |
| QVQLVESGGGLVQAGGSLRLSCAASGRTFGKNAMGWYRQAPGKERELVAAISTSGGRTYYADSVMGRFTISRDNAKNTVYLQMNSLIPEDPAVYYCAAVLYDTRPVYGCESWGQGTQVTVSS | high polyreactivity |
| QVQLVESGGGLVQAGGSLRLSCAASGRTFGKYARGWYRQAPGKERELVASITFSSGSTYYADSVKGRFTISRDNAKNTVYLQMNSLKPEDTAVYYCAKRGWGIYDYWGQGTQVTVSS | low polyreactivity |
| QVQLVESGGGLVQAGGSLRLSCAASGRTFGLNGMGWYRQAPGKEREFVATITGSGTSTYYADSVKGRFTISRDNAKNTVYLQMNSLKPEDTAVYYCAALSGLWGYHYYHEYYYWGQGTQVTVSS | low polyreactivity |
| QVQLVESGGGLVQAGGSLRLSCAASGRTFGLYAMGWYRPAPGKERELVADINGSGTRTYYADSVKGRFTISRDYAKNTVYLQMNSLKPEDTAVYYCYGRYHWLYYWGQGTQVTVSS | high polyreactivity |
| QVQLVESGGGLVQAGGSLRLSCAASGRTFGLYAMGWYRQAPGKERELVAAIDQSTGSTYYADSVKGRFTISRDNAKNTVYLQMNRLKPEDTAVYYCAAEEASTVRYYWYDYWGQGTQVTVSS | high polyreactivity |
| QVQLVESGGGLVQAGGSLRLSCAASGRTFGLYAMGWYRQAPGKERELVAAISWGGGRTYYADSVKGRFTISRDNAKNTVYLQMNSLKPEDNAVYYCNAVYSPRYYVGGYDYWGQGTQVTVSS | high polyreactivity |
| QVQLVESGGGLVQAGGSLRLSCAASGRTFGNNAMGWYRQAPGKERELVAAITGSGGSTYYADSVKGRFTISRDNAKNTVYLQMNSLKPEDTAVYYCAAVVYGAVRGSRYPYYYWGQGTQVTVSS | high polyreactivity |
| QVQLVESGGGLVQAGGSLRLSCAASGRTFGNYAMGWYRQAPGKERELVADITRRGGSTSYADSVKGRFTISRDNAKNTVYLQMNSLKPEDTAVYYCNADSYLPAIRYDYWGQGTQVTVSS | low polyreactivity |
| QVQLVESGGGLVQAGGSLRLSCAASGRTFGPNAMGWYRQAPGKERELVAVISGSTGSTYYADSVKGRFTISRDNAKNTVYLEMNSLKPEDTAVYYCAAKSEFYDWYRSYQYEYYYWGQGTQVTVSS | high polyreactivity |
| QVQLVESGGGLVQAGGSLRLSCAASGRTFGPYAMGWYRQAPGKERELVAAITSSGGSTYYADSVKGRFTISRDNAKNTVYLQMNSLKPEDTAVYYCNKLYWRQSQDYDYWGQGTQVTVSS | low polyreactivity |
| QVQLVESGGGLVQAGGSLRLSCAASGRTFGPYAMGWYRQAPGKERELVAVISKSGTRTYYADSVKGRFTISRDNAKNTVYLQMNSLKPEETAVYYCAARSPYSYRYDYWGQGTQVTVSS | high polyreactivity |
| QVQLVESGGGLVQAGGSLRLSCAASGRTFGPYEMGWYTQAPGKERELVASISSADSTYYADSVKGRFTISRDNAKNTVYLQMYSLKPEDTAVYYCAAPSVGYYDPTDFDYWGQGTQVTVSS | low polyreactivity |
| QVQLVESGGGLVQAGGSLRLSCAASGRTFGQNAMGWYRQAPGKERELVAAISSGGSTYYADSVKGRFTISRDNAKNTVYLQMNSLKPEDTAVYYCAVSSWDRGYWYYYWGQGTQVTVSS | high polyreactivity |
| QVQLVESGGGLVQAGGSLRLSCAASGRTFGQNAMGWYRQAPGKERELVASIRSGGITDYADSVKGRFTISRDNAKNTVYLQMNSLKPEDTAVYYCNAEGVWWSTRYDSWGQGTQVTVSS | low polyreactivity |
| QVQLVESGGGLVQAGGSLRLSCAASGRTFGQNAMGWYRQAPGKERELVASIRSGGITDYADSVKGRFTISRDNAKNTVYLQMNSLKPEDTAVYYCNDEGVWWSTRYDSWGQGTQVTVSS | low polyreactivity |

| Sequence | polyreactivity (PSR sort gate) |
| --- | --- |
| QVQLVESGGGLVQAGGSLRLSCAASGRTFGRNAMGWYRQAPGKERELVAAISYGGGSTYYADSVKGRFTISRDNAKNTVYLQMNSLKPEDTAVYYCAAPTDDSSLGVYKHGYWGQCTQVTVSS | low polyreactivity |
| QVQLVESGGGLVQAGGSLRLSCAASGRTFGRYAMGWYRQAPGKAREFVAAISSSGGSTSYADSVKGRFTISRDNAKNTVYLQMNSLKPEDTAVYYCNADAYRITRYGYDYWGQGTQVTVSS | high polyreactivity |
| QVQLVESGGGLVQAGGSLRLSCAASGRTFGRYAMGWYRQAPGKERDLVATITSGGSTNYADSVKGRFTISRDNAKNTVYLQMNSLKPVDTAVYYCAAEFSPSRWAYSEGALRYNYWGHGTQVTVSS | low polyreactivity |
| QVQLVESGGGLVQAGGSLRLSCAASGRTFGRYAMGWYRQAPGKERELVAAINRGGSTKYADSVKGRFTISRDNAKNTVYLQMNSLKPEDTAVYYCAKDRHPALHYDYWGQGTQVTVSS | low polyreactivity |
| QVQLVESGGGLVQAGGSLRLSCAASGRTFGRYAMGWYRQAPGKERELVAAITRGGGSTYYADSVKGRFTISRDNAKYTVYLQMNSLKPEDTAVYYCAARNFRSPYGYDYWGQGTQVTVSS | high polyreactivity |
| QVQLVESGGGLVQAGGSLRLSCAASGRTFGRYTMGWYIQAPGKERELGASISNTARTNYADSVKGRFTISRDNAKNTVYLQMNSLKPEDTAVYYCAAGFVRYRGTRDYWGQGTQVTVSS | low polyreactivity |
| QVQLVESGGGLVQAGGSLRLSCAASGRTFGRYTMGWYRQAPGKERELVADITSGWSTYADSVKGRFTISRDNAKNSVYLQMNSLKPEDTAVYYCNADRTYPEPAEYYYWGQGTQVTVSS | low polyreactivity |
| QVQLVESGGGLVQAGGSLRLSCAASGRTFGSNAMGWYRQAPGKERELVAAITRRGGSTYYADSVKGRFTISRDNAMNTVYLQMNSLKPEDTAVYYCATDPVSTRGSDYWGQGTQVTVSS | low polyreactivity |
| QVQLVESGGGLVQAGGSLRLSCAASGRTFGSNAMGWYRQAPGKERELVAVITTSGGSTYYADSVKGRFTISRDNAKNTVYLQMNSLKPEDTAVYYCNKVGWYHNYYYWGQGTQVTVSS | high polyreactivity |
| QVQLVESGGGLVQAGGSLRLSCAASGRTFGSYAMGWYRQAPGKERELVAAISKGGGSTYYADSVKGRFTISRDNAKNTVYLQMNSLKPEDTAVYYCAKRRFEYYYYWGQGTQVTVSS | high polyreactivity |
| QVQLVESGGGLVQAGGSLRLSCAASGRTFGTKTMGWYRQAPGKERELVAGISRSGGRTYYADSVKGRFTISRDNAKNTVYLQMNSLKPEDTAVYYCAAVSYYQPLRRIMDYWGQGTQVTVSS | high polyreactivity |
| QVQLVESGGGLVQAGGSLRLSCAASGRTFGTNAMGWYRQAPGKERELVAAISRRGGSTYYADSVKGRFTISRDNAKNTVYLQMNSLKPEDTAVYYCNVVTKFTGRGYDYWGQGTQVTVSS | high polyreactivity |
| QVQLVESGGGLVQAGGSLRLSCAASGRTFGTYAIVWYRPAPGKERELVAAITRRGGSTYYADSVKGRFTISRDNAKNTVYLQMNSLKPEDTAVYYCAARWFRYVPYSFPYLYKYDYWGQGTQVTVSS | low polyreactivity |
| QVQLVESGGGLVQAGGSLRLSCAASGRTFGTYAMGWYRQAPGKERELVAAISRRGGTTYYADSVKGRFTISRDNAKNTVYLQMNSLKPEDTAVYYCARASWSITTVLSTMDYWGQGTQVTVSS | high polyreactivity |
| QVQLVESGGGLVQAGGSLRLSCAASGRTFGTYAMGWYRQAPGKERELVAAISRRGGTTYYADSVKGRFTISRDNAKNTVYLQMNSLKPEDTAVYYCNVYRVSFSVVPLGYWGQGTQVTVSS | high polyreactivity |
| QVQLVESGGGLVQAGGSLRLSCAASGRTFGTYAMGWYRQAPGKERELVASITSGDSTNYADSVKGRFTISRDNAKNTVYLQMNSLKPEDTAVYYCNADIEFYVLFAYWGQGTQVTVSS | low polyreactivity |
| QVQLVESGGGLVQAGGSLRLSCAASGRTFGVNAMGWYRQAPGKERELVAAISYSGASTFYADSVKGRFTISRDNAKNTVYLQMNSLKPEDTAVYYCDARGYYGGFYYWGQGTQVTVSS | high polyreactivity |
| QVQLVESGGGLVQAGGSLRLSCAASGRTFGVYMGWYRQAPGKERELVAVISSGDSTNYADSVKGRFTISRDNAKNTVYLQMNSLKPEDTAVYYCNAYGSDRLTLDDYWGQGTQVSVSS | low polyreactivity |
| QVQLVESGGGLVQAGGSLRLSCAASGRTFGVYVMGWYRHAPGKERELVAFITISGGSTNYADSVKGRFTISRDNAKNTVYLQMNSLKPDDTAVYYCAARTYYGYDYWGQGNQVTVSS | high polyreactivity |
| QVQLVESGGGLVQAGGSLRLSCAASGRTFGWNGMGWYRQAPGKERELVAVISSGGSTKYADSVKGRFTISRDNAKNTVYLQMNSLKPEDTAVYYCAKDWVRSGRRKMDYWGQGTQVTVSS | low polyreactivity |
| QVQLVESGGGLVQAGGSLRLSCAASGRTFGWYAMGWYRQAPGKERELVAAINNSGDITYYADSVKGRFTISRDNAKNTVYVQMNSLKPEDTAVYYCAATAGYYGYPSEYDYWGQGTQVTVSS | low polyreactivity |
